This passage reports protein production results from a protein production outcome set (Wang et al. 2014).

A short description of the data set: label from the status in PepcDB records.

As to “MDSSSLEQELRWMKLVWEEAPGDKTEGPLTSPGWSTLFQAVWWGAPSLVMQLLRQGSSVEERDHTGRTPLHLAVMRGHAPLVRLLLQRGALAGAADHTGRTPLHEAAWHGHSNVAELLLRRGASAAACSQTGLTPLHGAAALGRTLLVTSFTVASDSGSDVKDVRGWTAAHWAAACGQLAVLELLSAGGNADLDGALLVSAIAGSTSSLQLLLTLGAKVDTQDSTGATALGLAAGLGHHQMLFFLCCLKKKQERKTHCWDWPLANLDPLEEQKLQELSIPRNLASVPAGGWTPSPGYIFRTVDTFVHGQLMPTEERTTECSLAVSVDLISVRDCSPSPPAGFPPVSALTIHPRADGLAQRN”, the protein production entry is reported as “failed”. For “MDSTGASQIVSALDVIYSPKSNNSQRQEAQKFLDEVKLCSESPFWGYEIALQNPTNSILKYFGLGLLDHAVKKNWNDYDEGKRVALRKWVMELNFGVQDYDTRYIKEKLATLWVEVAKRTWGEALKQTNPTEEQLLTSWVDMDNNLFELWNINQSSRELALIIFRILFEDVFLLDDLIVLKRMTVIQPLCVMIVCPIEVFAIKYKFSDKWTKFKANEEGWFSVWIPELNNALQQNNSEYIIRLLETLKTCLNWPLTEVIVRNDVLSSLLTCLSSNIPRAQSMALDSIHILLTRPYSNESHYQMTIDRVFDNMDLLDSVYESLLFDPTDDIDETKYPIIKKFVDMISCLYVCVPKIKETNGQIQKYFKLVLKTTYNPSLIVSGLTLDLWCTCLRNDEYLPKLEKYVIPDLLQFAADALVYYEQIDGHISKKFAEIDFQSKSEFQTFCSTYRKRIRDIIRLISCVELDLTYDWLNNRLNNYFSSPFGQQVLSSTFLDHKLEPYLGALSQYMIVECFINGCIRWKIWYPTGDDYDEKLDSILQKLEILSNQLIALNLREPLLLKKQIQNFALFLTMLKDNVLFTLLEKIITSATMDYPEINLEERGAESDAVRDLRYACGIELNRMALLMPESLKKIYPDLESVIARIMPNLSYHEKISFKSFLLIIVLKSSLDMKEERFAAIVDPELLAWSDKTTVVGLSDLHWFMERLGIVQIAEYFQRRDIDENSDLLSIPIDDEGKELKSELTKRWQSLFPVRATRMFIHYSMQSIKTDEEFKMLQDLWRPRIVPILPYITRLLYQLQSYHDPDNWKGLPTVVQSFVKYSTIERFWEAGASNKSKDEFIDEHMKAMQTLRDFADSVGHIIRYTREYTLLVLSAISSLGSVFYLLDESPDLLLNSIAIFKPGSNEISPGVSTHGWKHIMNIAIRPILKGCPKDCLGKFMPAFLPKLFEILDLLLCQKWSSHMNDMDMNPVPTDDDQMTEEILEENLLRQLTTVVVRIVIDCVGQGNANPNSAKSRLNNHQMEMRKIIFNDLNTLAPFLKLLNHLISFKDTKCSFNSILVMKCCLTSVLNQNNTVDEYFTFEVMKNLLLNVLCNSAFKDSFHEALYAFTVIFLTLCKEYPSARAFLFEISNGYNIDELYRNLRSVDEYKTQRALMIDFIDWVKSTSGKEDGNVDHAGDERKRQEKREAILKKANERLIKKNKENGDMLDDPNIEDGAVGNLFDDN” the value was “failed”. On to “MDSVTLACGNGGKETNALIERVFMPYLKEWIVAFDEDAPKFEASGEYCVSTDSFVITPLIFNGGDIGKLCVCGSANDVSVQGGEPLYLNMGFILEEGLEISLLKQILQSIQKELFKANLKLLSLDTKVVPKGSVDKLFINTTCIGKIIKPGISSYHLQQGQAIILSDTIANHGASLFAMRNEIKLKTNLESDCQLLYPLLKPLFLSDLKIDALRDATRGGLASVLNEWANSSRVKIVIEEEKIPLKEETKGICEILGLEPYALANEGVFVLALNQKDAPKALEILKSNEKAKNACVIGKVFENPYPSVVLKNAWGFERILEVPEGELLPRIC”, for which the protein production result is “failed”. In the case of “MDSYFLFFIILTSIFIVPQILKRFNVPTITATMLAGIIIGPFGLNLIQTSSTLDTFASFGVIFLMFLAGMEVDNETLKDEFKNSLVLSLFSMLIPAIGGYFIGQYFGLDFIGSLLYAVIFSSHSVGIVYALMDELGLIKSRFGTTVISASVVIDLISLIVISILIKMGGSGINSDIIPFIVLIVAYIIALLIIIPLISKLILNELQKFHVQKIHFILLIILISIIVGEHIGIHPIIGAFIIGIAVSEELTKEEHDKILNENLNAIGYGIFIPLFFLNLGMTTDISVIFNFDNLSLIFVSVVSLISLKIISGYFSLRILDYNKLKSFCGGLLTVPSLTASLVGATLGRDLGILPEKFFVAVVVIALLTSTVAPIYVKNLVSKNYDKLKLN”, the protein production entry is on record as “failed”. With “MDTAGIRLTPKEIVSKLNEYIVGQNDAKRKVAIALRNRYRRSLLDEESKQEISPKNILMIGPTGVGKTEIARRMAKVVGAPFIKVEATKFTEVGYVGRDVESMVRDLVDVSVRLVKAQKKSLVQDEATAKANEKLVKLLVPSMKKKASQTNNPLESLFGGAIPNFGQNNEDEEEPPTEEIKTKRSEIKRQLEEGKLEKEKVRIKVEQDPGALGMLGTNQNQQMQEMMNQLMPKKKVEREVAVETARKILADSYADELIDQESANQEALELAEQMGIIFIDEIDKVATNNHNSGQDVSRQGVQRDILPILEGSVIQTKYGTVNTEHMLFIGAGAFHVSKPSDLIPELQGRFPIRVELDSLSVEDFVRILTEPKLSLIKQYEALLQTEEVTVNFTDEAITRLAEIAYQVNQDTDNIGARRLHTILEKMLEDLSFEAPSMPNAVVDITPQYVDDKLKSISTNKDLSAFIL”, the protein production result is “failed”. As for “MDTAIILGLLVAVFYGVGTFFAKIVCEKNPLFQWIVVNIVGIILCLIILLKYKNIIITDQKILTYAIISAVLVVIGSLLLYYALYKGKASIVVPLSSIGPAITVALSILFLKETLTLPQMIGIVLIIIGIILLSISN”, the entry is “failed”; as for “MDTFDINTEINEDEINVEKIMEKIRENIRKQKGAGIFPEKIHGDLQQGSLLEVTPGESNIQRDLDYINSNWDIQNNSYFISSHRPFVGKFLVRGRDLVHGEIRRYVDPVFWKQTEFNGSTVRLLNDTAGKFIYYNNKIEQLQSEMDSKIEQLQSEMDSKIEHLRPELGNKIERLRSEFENQIEQLKSEIDDSIKAEVNSIISLMNLDIENKAWLASVLDGKIEKGYKNKKTGTPDPGDLDINYFRFEEQFRGSREDIKQRQSCFMNYFLGCSNVLDIGCGRGEFLELASEHGIGAKGVDIDDTMVDFCLSKGLNVVKQEAISYLESVDDKSLDGIFIDQVVEHLEPDYLIKLLKLCFQKLKYGYYIFAETVNPLSFVSFANFYIDMTHKKPIHPETLKFLLTSAGFRDVDTMFFSPVSEKARLQKVPINNDMEEWVKNYLDIYNHNLEKLNGILYGAQDYAVIGKK”, “failed”; as for “MDTNNNIEKEILALVKQNPKVSLIEYENYFSQLKYNPNASKSDIAFFYAPNQVLCTTITAKYGALLKEILSQNKVGMHLAHSVDVRIEVAPKIQINAQSNINYKAIKTSVKDSYTFENFVVGSCNNTVYEIAKKVAQSDTPPYNPVLFYGGTGLGKTHILNAIGNHALEKHKKVVLVTSEDFLTDFLKHLDNKTMDSFKAKYRHCDFFLLDDAQFLQGKPKLEEEFFHTFNELHANSKQIVLISDRSPKNIAGLEDRLKSRFEWGITAKVMPPDLETKLSIVKQKCQLNQITLPEEVMEYIAQHISDNIRQMEGAIIKISVNANLMNASIDLNLAKTVLEDLQKDHAEGSSLENILLAVAQSLNLKSSEIKVSSRQKNVALARKLVVYFARLYTPNPTLSLAQFLDLKDHSSISKMYSGVKKMLEEEKSPFVLSLREEIKNRLNELNDKKTAFNSSE”, “failed”. As for “MDTRKLLLTAQEISRMKGEHKVHFLNPGAVRVNKSLGDAVGLRHMGIHLIQIEPGKESTEYHLHHYEEEAVYVLSGKGTLTMENDQYPIAPGDFVGFPCHAAAHSISNDGTETLVCLVIGQRLDQDVVDYPNQHKRLYRNNGEWNLVDMADIRVLREPTQK”, the entry is “not failed”. As for “MDTSNLDTPMRMAAFDRVRGLNEVHDHLTATELQPGFLFRGERIPLVNPQRGIFKPHQMRFLLSIKTVFPKPGGKVWYDDQRDIQRQIFYGDEAIDYAFMGKNPDAADNRWLKEAYENQIPVVYFLGIAPGRYQALLPTFISGWDGQALKARITFGPNPEKLAPPSDSAERRYALRTVKQRLHQATFREAVISAYDGRCAFSGLPEPLLLDAAHIIADKDERLGHPVVTNGIPLSKIHHAAFDAHLIGIDPDFRLHVSDRLLGQNDGPMLEALKQLNGRNIRLPGRAKDHPDRDRLAMRFERYKSVA”, the entry is “failed”; as for “MDTSTNLDIGAQLIVEECPSTYSLTGMPDIKIEHPLDPNSEEGSAQGVAMGMKFILPNRFDMNVCSRFVKSLNEEDSKNIQDQVNSDLEVASVLFKAECNIHTSPSPGIQVRHVYTPSTTKHFSPIKQSTTLTNKHRGNEVSTTPLLANSLSVHQLAAQGEMLYLATRIEQENVINHTDEEGFTPLMWAAAHGQIAVVEFLLQNGADPQLLGKGRESALSLACSKGYTDIVKMLLDCGVDVNEYDWNGGTPLLYAVHGNHVKCVKMLLESGADPTIETDSGYNSMDLAVALGYRSVQQVIESHLLKLLQNIKE”, “failed”; as for “MDTVVLVLMLLTAFNFLLKQTFWKLIAVGIITAICAVFAGLMWPYAIEQSKTQIANWLSNQPLMLDTSVLLSVEVCIQMAYAMLAVHVANDYPVKPRMILMYRFLRWFPGLLIFPVLFSGLVYLIFAFPGTSFQTIAWSYAAFILAAIPCGRFILLYLLPEKELRLELFFLTNALVAVLGIVATVNGKTSAAGVSEIDWKALTGVIVIALAGGILGLLWWNIRNRNKEKSVKQ”, “failed”. “MDVFSEYLAGIADPFHRERTEEVLTWIKNKYPNLHTEIKWNQPMFTDHGTFIIGFSVSKKHLAVAPEKVTIAHVEDDIVKAGYDYTEQLIRIPWNGPVDYTLLEKMIEFNILDKADCSTFWRK”: the protein production entry is listed as “not failed”. “MDVPTPPPAEIYLAIQLPNPLSILVNYLPVSVTPIETLRGLVSTLEPTAINMDEFMTWPDFVLPETPFRTYFTLLLERGARPAIYLEGVRLACNFITVAHGLTMLSSISPIDAYACFSHGLFLTATGNGREVEAVNATFWDLVPSFEAANTVGELVMYHISRLHAEGTRLWNRSWRFVVSPDCLGRCSYGACCRNCFFYWYARELCIFY”: the protein production entry is “failed”.

Turning to “MDVQIHPMIIELAAFQAAKCGSVVGFGMVPSRNPSIKAASFFGIMVVTRSHVGESKDKGKEVEIAEPIESLILWLEELVAKQNKAMMRPMSDMMGAISRSTSHKLHDEQSTRDWSLPRSSTSTDDRSGHPVYRRKNRYDQVRYDAHQHYGNLTRLGKIDISRLDGIGIKEWLFKVEEFFGVDFTLQI”, the protein production result is “failed”. With “MDVRQRLISSMVISLGLTIISEGIVLIGIASLLHISLFFIFPALVIFWLFQWIISPYVVGRGGYEVSPNDPQYGWLYNLVRRIAEESKIKPPRVFVIDAPYPNAFAYGNRLGGMRVGITLPLLNILDVDELTAVIAHEVGHIKHRDVEIGMTIGLIPTVLGYISTLLMNFGYLALFLAADEIELLFAIAALAIGFVIFVVTFILQIFVLWFNRLRESYADYNSFLVLGEGSKALATALAKIEIYMQNIRIDPFTGIIVTAPPVKVEEKDPHLLVEQWLRTKVSAFKDILSTHPYPARRAQMIYRLIYGSNI”, the protein production entry is “failed”. Turning to “MDVSFEFEHYQVRLIKSSDAVTIANYFMRNRHHLAPWEPKRSHAFFTPEGWKQRLLQLVELHKHNLAFYFVVVDKNEHKIIGTVSYSNITRFPFHAGHVGYSLDSEYQGKGIMRRAVNVTIDWMFKAQNLHRIMAAYIPRNEKSAKVLAALGFVKEGEAKKYLYINGAWEDHILTSKINDDWKPE”, the protein production entry is “failed”. For “MDVSLPCIKIQVQTRYIEEQSNPEYQRFVFAYLITIKNLSSQTVQLMSRRWLITDADGKQTVVEGDGVVGEQPRIKANDEYTYSSGTALDTPVGVMQGQYLMIDEQGESFTVEIEPFRLAVPHVLN” the value was “not failed”.
